One molecule from article PMC4570232 (Cell reports, 2015) can be followed below.

For one assay, the target named is FLAG-tagged Ragulator (UniProt Q6IAA8 1-161; Q9UHA4 1-124; Q9Y2Q5 1-125; O43504 1-91; Q0VGL1 1-99, G2A). Briefly: pull-down.
The target of another assay is HA-GST-tagged Ragulator (UniProt Q9Y2Q5 1-125; Q9UHA4 1-124; Q6IAA8 1-161; O43504 1-91; Q0VGL1 1-99, G2A). Briefly: pull-down.

B1: FLAG-tagged c17orf59 (natural protein)
chain: MESSRGRPGPETDLLAVAEHQALVFGGGPGRTSSEPPAGLRVSGEEETENVGGANRHPRTSPKTSSCGVVHRPEREALENEPGPQGTLSGAGSRRGAPGAEHEPSLSSRHKNPAPPEGKPSSGRDCRRGGPGGGMDVEQQEEEDNDEEAAAGSRAGRSFSSRLQDSRSLDGLSEACGGAGSSGSAESGAGGGRRATISSPLELEGTVSRHGDLTHFVANNLQLKIRLSGAPPPPPSAPARPCPAPAPTPTPAIPPIDPEVLRDLERLSRELGGRVDRLLRGLGGAVQELTALSVGCIQTYRDAVDSLGEAVDMSIKGMYTLLARCEELERALQPVQGLARQVRDIRRTLEVLEALCK
Turning to B1, the binding result with FLAG-tagged Ragulator and with HA-GST-tagged Ragulator was “binds” each time.
